The source of these data is the RNAGym collection of RNA variant scans (doi:10.1093/nar/gkz1192).

First the molecules themselves.
B1: CPEB3 Ribozyme (parent)
chain: UAACAGGGGGCCACAGCAGAAGCGUUCACGUCGCAGCCCCUGUCAGAUUCUGGUGAAUCUGCGAAUUCUGCUGUAUAUCUC

The data set covers variants of B1. Briefly: self-cleavage, relative activity (ratio to wild type); higher = more cleavage; in vitro, sequencing. The procedure, abridged: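 CPEB3 self-cleaving ribozyme mutant libraries were made by rounds of error-prone PCR, barcoded, and transcribed in vitro with T7 RNA polymerase for 5 hours at 37°C. Cleavage occurred during transcription and a 15 min DNase I step before EDTA stop. RNAs were reverse transcribed with template switching and Illumina-sequenced, with DNA sequencing mapping barcodes to variants. Relative activity is the variant's cleaved/total read fraction divided by wild type's (minimum 5 reads), averaged across three batches.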
Turning to U25A U43A, the self-cleavage was 0.21.

As for U58A A64G, the self-cleavage came to 0.32.

In the case of C23A U78A, the self-cleavage came to 0.21. The result for G6U A56G reads 0.41. The result for G33U A56U reads 0.42. The same measure for A18U U41A: 0.22; for U49A C62A: 0.26; for U54A A75G: 1. Regarding A5U A57C, the self-cleavage came to 0.7. Consider U26C U60G, for which the self-cleavage worked out at 0.3.

In the case of A56U G63A, the self-cleavage was 0.48. The same measure for U31A C37U: 0.16; for A13U U72C: 0.96. A13U U72A: the self-cleavage worked out at 0.77. The result for C14A U25C reads 0.21; that for U54C U76C, 1.06. The same measure for U54C G55U: 0.78. The same measure for G30A G52A: 0.21. Take G9U A18U: the self-cleavage was found to be 0.2. The result for C17G U51C reads 0.6.

Consider C12G C50G, for which the self-cleavage worked out at 0.28. The result for G36U A75G reads 0.11; that for A35U C40U, 0.37; that for U66G U80C, 0.54.

In the case of U26G A56G, the self-cleavage was 0.24. U31A A47U: the self-cleavage turned out to be 0.29. With A18U C32A, the self-cleavage is 0.17. The same measure for A45U U78G: 0.65; for U1C A20G: 0.59. The same measure for G63U U69A: 0.57; for A13U C23G: 0.17; for A13U C23A: 0.33. For A21C A45U, the self-cleavage amounted to 0.13.

For G10C U66A, the self-cleavage turned out to be 0.2. For C4U A35U, the self-cleavage was found to be 0.81.

U25C G55C: the self-cleavage was determined as 0.33. The result for U25G U69A reads 0.15; that for C11G U80C, 0.55; that for U49C U74C, 0.65. Regarding G24C U66C, the self-cleavage was 0.26. The result for A56G G61A reads 0.63; that for A20C U72G, 0.09; that for C39A U67C, 0.16.

As for A35U A45C, the self-cleavage stood at 0.18. Regarding C12U A35G, the self-cleavage stood at 1.15. With C12U A35U, the self-cleavage turned out to be 1.06. The same measure for A35G C62G: 0.51; for A5G G70C: 0.25. On to U25C U72C, for which the self-cleavage stood at 0.28. For A5G U60C, the self-cleavage turned out to be 0.36. Consider U76C U78A, for which the self-cleavage is 1.19. As for C37A A77U, the self-cleavage was 0.28.

C14G G61A: the self-cleavage was 0.42. The result for U31A U41C reads 0.51. The result for C12A U58C reads 0.54; that for U72G A75G, 1.2; that for U51A C62U, 0.25.

For U1C G19A, the self-cleavage was 0.32. The same measure for A15C C37U: 0.58; for A2G A28U: 0.52; for C34U U51G: 0.54.

In the case of G30U U72G, the self-cleavage is 0.15. On to G70U A77G, for which the self-cleavage was determined as 0.4.

In the case of G22U U41C, the self-cleavage came to 0.27. With G42U A56U, the self-cleavage was 0.48.

As to G30C U31C, the self-cleavage turned out to be 0.26. The same measure for C62U U76C: 0.33; for C37U U60C: 0.35. The result for U25A U80G reads 0.22; that for U60C G70A, 0.48; that for U1C U80A, 0.82. Consider A5C A57C, for which the self-cleavage came out at 0.52.

Consider G9A U78C, for which the self-cleavage was 0.25.

As to G52A G53A, the self-cleavage came to 1.13. The same measure for A28G A45U: 0.31; for A35U U67C: 0.21; for A75G C81A: 1.04. For the variant C14U C23G, the self-cleavage worked out at 0.12. The result for U69C A77G reads 0.67. The result for A64G U66C reads 0.34; that for A28G U74G, 1.08; that for C12U U76C, 1.31. The same measure for A13C C44U: 0.59. In the case of U54C A64U, the self-cleavage was found to be 0.36. The same measure for A2G G42A: 0.05; for G10A G36A: 0.26. Consider A20C A35G, for which the self-cleavage is 0.88. The same measure for A5G C27A: 0.44; for A5G C27U: 0.13. The result for U26G C68U reads 0.35; that for U49A A57U, 0.4; that for C4G G36U, 0.28. The same measure for G30C A57G: 0.25; for U54C U58C: 0.48. Consider C23A G24A, for which the self-cleavage is 0.13. In the case of A13G A45U, the self-cleavage was 0.4. A15C A20C: the self-cleavage was found to be 0.19. The result for U51A C79U reads 1.18. The same measure for A47G A75U: 1.11. The same measure for U26C G33U: 0.24; for U60A U76A: 0.61. In the case of C11G C44G, the self-cleavage was found to be 0.32. The same measure for G19U U69A: 0.27. The result for U25C C32U reads 0.14; that for U25C C59U, 0.28; that for A2G C11U, 0.51.

On to A20G U69C, for which the self-cleavage stood at 0.5. In the case of C40U U41A, the self-cleavage is 0.25. Turning to G6A C23G, the self-cleavage was found to be 0.35. The result for U25G C59U reads 0.21; that for U26A U66C, 0.34.

U26C: the self-cleavage was 0.5. With U69A G70A, the self-cleavage stood at 0.24. The same measure for U49A U69C: 0.44; for A28C U51A: 0.53; for A28C U51G: 0.38. Take G22A A47G: the self-cleavage was 0.48.

With G19U U74C, the self-cleavage is 0.56. Turning to C50A U74C, the self-cleavage was found to be 0.87. The result for G33A U69C reads 0.27.

In the case of A2G G24A, the self-cleavage was 0.3. The result for U67C A75G reads 0.35; that for G9U A64U, 0.06. The same measure for C32A A77U: 0.33.

As for C29G C34U, the self-cleavage is 0.08.

For U1C U26A, the self-cleavage came to 0.81.

For the variant U49C U51C, the self-cleavage came to 0.38. The result for A5C C62U reads 0.13. The same measure for C27A U54C: 0.56; for G6A G9C: 0.07. In the case of A15G U72C, the self-cleavage was 1.16. The result for C23U A77G reads 0.34. The result for A28G U76G reads 0.56; that for A20G U54G, 0.52; that for A5G A47G, 0.65. With G9C U41C, the self-cleavage was determined as 0.15. The result for A21U C62U reads 0.01; that for A18G G36C, 0.13. The result for U69A U72G reads 0.49. The result for G24U U72C reads 0.52.

For U58G U78A, the self-cleavage turned out to be 0.4. As to C12U A57G, the self-cleavage was found to be 1.26.

As for C68G U78C, the self-cleavage turned out to be 0.69. The same measure for C14U U41C: 1.2; for U67A C71U: 0.11; for A28G A65U: 0.15. The same measure for A13U A15U: 1.05; for A21G A47G: 0.42. The same measure for C23A U67C: 0.17; for G46U: 0.28. For the variant A21U U76A, the self-cleavage came out at 0.45.

On to U25C C40U, for which the self-cleavage stood at 0.19. The result for A3U U43G reads 0.34. A57U A77G: the self-cleavage was determined as 0.76. The result for U26A A45G reads 0.69; that for G16C A21G, 0.32.

For the variant A45C U54A, the self-cleavage stood at 0.45. The same measure for G9U G63A: 0.08; for G55A U72A: 0.53; for U51C A56U: 0.74. The result for U41A C79G reads 0.37; that for G6A A77C, 0.44. The same measure for U66C: 0.44; for A3C A18G: 0.64; for A13C U72C: 0.83. Consider C37A C71U, for which the self-cleavage is 0.2. The same measure for A20G G63C: 0.63.
